The supplement of paper PMC10567573

B1: SPATS1 (parent)
chain: GRKKYDIDPRNGIPKLTPGDNPYM
B2: POMT2 (parent)
chain: VLRSRIRFIHLVTGCVLGSSGKVL
B3: APBB1IP (parent)
chain: ADPVLDLPLPPPPPEPLSQVSMWD

Variants of: B1
Assay: protein stability index of a GFP-peptide fusion (GPS, HEK-293T) (PSI 1-6); higher = more stable
Conditions: c terminus: a fixed tail appended
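Also: lentivirally expressed fusions sorted by FACS into six bins by GFP to DsRed ratio, PSI derived from sequencing read proportions per bin multiplied by bin number.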

Protein stability index, by site and new letter:
K15: V 3.29; S 3.69; I 3.69; F 2.97; M 3.69; C 3.04; E 4.33; N 3.49; P 3.62; L 3.29; Y 2.96; D 3.88; G 2.81; W 1.98; A 3.64; H 3.55; Q 4.05; T 3.78; R 3.63
D6: Q 2.94; W 2.38; V 2.52; G 3.51; T 3.16; E 3.4; N 3.36; P 3.49; F 2.51; H 3.35; M 3.01; S 3.4; Y 3.12; C 2.89; I 2.57; A 3.26; L 2.84; R 3.11; K 3.33
G12: C 2.48; D 3.3; Y 2.8; R 3.42; W 2.83; P 3.9; I 2.77; K 3.58; E 3.97; F 3.34; A 3.66; M 3.08; S 3.57; V 3.46; T 3.22; H 3.32; L 3.09; N 3.21; Q 3.72
P9: R 3.74; N 3.49; S 3.85; C 3.72; Q 3.67; A 3.44; G 3.52; M 3.28; L 3.24; T 3.62; D 3.99; H 3.79; F 2.8; I 3.69; W 2.52; V 3.36; E 4.19; Y 2.99; K 3.27
K3: P 3.29; H 3.67; F 2.83; I 3.39; N 3.32; A 3.2; D 4.24; W 2.91; T 3.73; L 3.19; C 2.29; Q 3.8; M 3.2; R 3.27; Y 2.77; G 3.53; E 3.79; V 3.67; S 3.25
K4: P 3.52; R 3.19; T 3.48; G 3.71; N 3.88; M 3.5; F 2.62; C 2.81; S 3.83; Y 3.22; D 3.83; E 4.1; A 3.38; V 3.29; L 2.91; Q 3.23; I 3.33; W 3.03; H 3.2
I13: T 3.72; V 3.82; P 3.86; F 3.99; C 3.82; N 4.1; L 3.64; W 3.44; Y 2.81; Q 3.68; M 3.36; K 3.9; S 3.88; A 4.14; G 3.78; H 4.04; R 3.58; E 4.45; D 4.92
D8: E 3.72; R 3.08; A 3.02; I 3.08; Q 3.83; T 3.56; G 2.93; K 3.14; F 2.84; Y 2.68; P 3.42; M 3.18; N 3.12; H 2.82; W 2.68; S 3.33; V 3.08; C 3.1; L 3.16
G1: C 2.83; W 2.78; S 3.65; D 3.85; Y 3.31; H 3.25; E 3.96; A 3.48; N 3.54; K 3.25; L 2.96; V 3.68; F 2.88; R 3.93; P 3.51; I 2.66; Q 3.52; M 3.12; T 3.4
Y5: E 4.86; W 2.92; K 4.23; L 4.43; M 3.65; C 4.08; G 4.44; V 4.04; T 4.11; H 3.88; N 3.93; Q 4.27; S 4.36; P 3.38; F 3.51; I 3.4; D 4.64; R 4.07; A 4.14
R2: V 3.73; F 3.4; L 3.12; A 3.51; D 4.13; G 3.39; H 3.85; N 3.44; T 3.15; S 3.66; Q 3.59; W 2.73; I 3.25; M 3.37; K 3.61; Y 3.15; E 4.15; C 3.3; P 3.73
R10: V 2.8; F 2.7; K 3.92; I 3.57; D 4.41; T 3.81; M 3.03; S 3.65; L 3.53; E 4.19; G 3.68; C 3.77; H 3.4; A 3.48; W 2.56; N 3.23; Q 4.14; Y 3.1; P 3.29
N11: F 3.34; S 3.6; V 3.28; Q 3.41; T 3.46; P 3.8; I 3.22; M 3.17; D 3.87; A 3.05; G 3.53; H 3.54; R 3.28; C 2.77; K 3.59; E 3.82; L 3.06; W 2.48; Y 4.13
I7: T 3.75; D 4.21; V 3.83; F 3.11; M 2.98; C 3.93; E 4.5; H 3.81; S 4.25; P 3.71; W 2.91; Q 4.17; G 4.08; A 3.53; N 3.86; R 4.22; L 3.39; Y 3.45; K 4.19
P14: T 3.27; L 2.94; W 2.9; R 2.99; A 3.52; S 3.3; K 3.44; E 4.16; Q 3.42; D 3.66; Y 3.03; M 3.05; F 2.4; N 3.55; H 3.51; V 3.36; C 2.95; G 3.38; I 2.96

Variants of: B2
Assay: as above
Conditions: c terminus: a fixed tail appended

Protein stability index, by site and new letter:
K22: W 3.35; H 2.37; D 3.31; Y 2.74; L 2.69; P 1.99; C 2.73; A 2.25; V 3.02; S 2.57; F 2.53
G21: R 2.47; Q 3.44; W 2.96; S 3.83; N 2.47; T 2; V 2.17; P 2.65
V23: G 3.42; Q 3.61; E 3.48; K 2.21; M 2.32; R 1.46; F 1.77; C 2.37; Y 2.47; D 3.41; P 3.61
L24: W 4.21; G 3.89; N 1.89; S 2.75; E 3.25; M 2.42; H 3.1; R 2.92; D 2.33; Y 2.18; I 4.08

Variants of: B3
Assay: as above
Conditions: c terminus: a fixed tail appended

Protein stability index: each site, then its substitutions
P11: K 4.69; V 4.43; E 4.69
P13: W 3.8; R 4.37; V 3.84; E 4.96; K 4.6
